Consider 39 variants from the RNAGym collection of RNA variant scans (doi:10.7554/elife.90254).

B1: LINE1-full (parent)
chain: UACGUAGGUGGUUUUCCCCUGAUAGUGCUAAGGGGGCCUGGAAGUUUGGACUGGGCAGAGCUCAACACAGCGUGGCAAAGUGGCUGUGGCUAGACUGCCUCUCUGGAUUCCUCGUCACUCAGCAGGGCAUCUCUGAGAGAAAUGCC

Variants of B1 are the subject of the series. Put plainly: self-cleavage, relative activity (ratio to wild type); higher = more cleavage; in vitro, sequencing; the parent is a self-cleaving ribozyme.
Regarding UACGUAGGUGGUUUUCCCCUGACAGUGCUAAGGGGGCCUGGAAGUUUGGACUGGGCAGAGCUCAACACAGCGUGGCAAAGUGGCUGUGGCUAGACUGCCUCUCUGGAUUCCUCGUCACUCAGCAGAGCAUCUCUGAGAGAAAUGCC [U23C G126A], the self-cleavage stood at 1.18.
The same measure for UACGUAGGUGGUUUUCCCCUGACAGUGCUAAGGGGGCCUGGAAGUUUGGACUGGGCAGAGCUCAACACAGCGCGGCAAAGUGGCUGUGGCUAGACUGCCUCUCUGGAUUCCUCGUCACUCAGCAGGGCAUCUCUGAGAGAAAUGCC [U23C U73C]: 1.81; for UACGUAGGUGGUUUUCCCCUGACAGUGCUAAGGGGGCCUGGAAGUUUGGACUGGGCAGAGCUCAACACAGCGAGGCAAAGUGGCUGUGGCUAGACUGCCUCUCUGGAUUCCUCGUCACUCAGCAGGGCAUCUCUGAGAGAAAUGCC [U23C U73A]: 1.28.
As for UACGUAGGUGGUUUUCCCCUGAGAGUGCUAAGGGGGCCUGGAAGUUUGGACUGGGCAGAGCUCAACACAGCGUGGCAAAGUGGCUGUGGCUAGACUGCCUCUCUGGAUUCCCCGUCACUCAGCAGGGCAUCUCUGAGAGAAAUGCC [U23G U112C], the self-cleavage amounted to 1.07.
For the variant UACGUAGGUGGUUUUCCCCUGAGAGUGCUAAGGGGGCCUGGAAGUAUGGACUGGGCAGAGCUCAACACAGCGUGGCAAAGUGGCUGUGGCUAGACUGCCUCUCUGGAUUCCUCGUCACUCAGCAGGGCAUCUCUGAGAGAAAUGCC [U23G U46A], the self-cleavage came out at 1.3.
In the case of UACGUAGGUGGUUUUCCCCUGACAGUGCUAAGGGGGCCUGGAAGUUUGGACUGGGCAGAGCUCAACACAGCGUGGCAAAGUGGCUGUGGCUAGACUGCCUCUCUGGAUUCCUCGUCACUCAGCAGGGCAUCUCUGAGAGAAAAGCC [U23C U143A], the self-cleavage came to 1.28.
The same measure for UACGUAGGUGGUUUUCCCCUGACAGUGCUAAGGGGGCCUGGAAGUUUGGACUGGGCAGAGCUCAACACAGCGUGGCAAAGUGGCUGUGGCUAGACUGCCUCUCUGGAUUCCUCGUCACUCAGCAGGCCAUCUCUGAGAGAAAUGCC [U23C G127C]: 1.12.
Regarding UACGUAGGUGGUUUUCCCCUGACAGUGCUAAGGGGGCCUGGAAGUUUGGACUGGGCAGAGCUCAACACAGCGUGGCAAAGUGGCUGUGGCUAGACUGCCUCUCUGGAUUCCUCCUCACUCAGCAGGGCAUCUCUGAGAGAAAUGCC [U23C G114C], the self-cleavage was 2.07.
As for UACGUAGGUGGUUUUCCCCUGAGAGUGCUAAGGGGGCCUGGAAGUUUGGACUGGGCAGAGCUCAACACAGCGUGGCAAAGUGGCUGUGGCUAGACUGCCUCCCUGGAUUCCUCGUCACUCAGCAGGGCAUCUCUGAGAGAAAUGCC [U23G U102C], the self-cleavage was 1.02.
As to UACGUAGGUGGUUUUCCCCUGACAGUGCUAAGGGGGCCUGGAAGUUUGGACUGGGCAGAGCUCAACACAGCGUGGCAAAGUGGCUGUGGCUAGACUGCCUCUCUGGAUUCCUCGUCACUCAGCAGGGCAUCACUGAGAGAAAUGCC [U23C U132A], the self-cleavage stood at 1.86.
Consider UACGUAGGUGGUUUUCCCCUGACAGUGCUAAGGGGGCCUGGAAGUUUGGACUGGGCAGAGCUCAACACAGCGUGGCAAAGUGGCUGUGGCUAGACUGCCUCUCUGGAUUCCUCGUCACUCAGCAGGGCAUCCCUGAGAGAAAUGCC [U23C U132C], for which the self-cleavage was 1.58.
UACGUAGGUGGUUUUCCCCUGAUCGUGCUAAGGGGGCCUGGAAGUUUGGACUGGGCAGAGCUCAACACAGCGUGGCAAAGUGGCUGUGGCUAGACUGCCUCUCUGGAUUCCUCGUCACUCAGCAGGGCAUCUCUGAGAGAAAUGCC [A24C]: the self-cleavage was determined as 1.62.
For UACGUAGGUGGUUUUCCCCUGACAGUGCUAAGGGGGCCUGGAAGUUUGGACAGGGCAGAGCUCAACACAGCGUGGCAAAGUGGCUGUGGCUAGACUGCCUCUCUGGAUUCCUCGUCACUCAGCAGGGCAUCUCUGAGAGAAAUGCC [U23C U52A], the self-cleavage turned out to be 1.39.
For UACGUAGGUGGUUUUCCCCUGACAGUGCUAAGGGGGCCUGGAAGUUUGGACUGGGCAGAGCUCAACACAGCGUGGCAAAGUGGCUGAGGCUAGACUGCCUCUCUGGAUUCCUCGUCACUCAGCAGGGCAUCUCUGAGAGAAAUGCC [U23C U87A], the self-cleavage turned out to be 0.06.
As for UACGUAGGUGGUUUUCCCCUGACAGUGCUAAGGGGGCCUGGAAGGUUGGACUGGGCAGAGCUCAACACAGCGUGGCAAAGUGGCUGUGGCUAGACUGCCUCUCUGGAUUCCUCGUCACUCAGCAGGGCAUCUCUGAGAGAAAUGCC [U23C U45G], the self-cleavage came to 1.02.
On to UACGUAGGUGGUUUUCCCCUGACAGUGCUAAGGGGGCCUGGAAGCUUGGACUGGGCAGAGCUCAACACAGCGUGGCAAAGUGGCUGUGGCUAGACUGCCUCUCUGGAUUCCUCGUCACUCAGCAGGGCAUCUCUGAGAGAAAUGCC [U23C U45C], for which the self-cleavage is 1.7.
Take UACGUAGGUGGUUUUCCCCUGACAGUGCUAAGGGGGCCUGGAAGAUUGGACUGGGCAGAGCUCAACACAGCGUGGCAAAGUGGCUGUGGCUAGACUGCCUCUCUGGAUUCCUCGUCACUCAGCAGGGCAUCUCUGAGAGAAAUGCC [U23C U45A]: the self-cleavage stood at 1.25.
As for UACGUAGGUGGUUUUCCCCUGAGAGUGCUAAGGGGGCCUGGGAGUUUGGACUGGGCAGAGCUCAACACAGCGUGGCAAAGUGGCUGUGGCUAGACUGCCUCUCUGGAUUCCUCGUCACUCAGCAGGGCAUCUCUGAGAGAAAUGCC [U23G A42G], the self-cleavage amounted to 1.46.
With UACGUAGGUGGUUUUCCCCUGACAGUGCUAAGGGGGCCUGGAAGUUUGGACUGGGCAGAGCUCAACACAGCGUGGCAAAGUGGCUGUGGCUAGACUGCCUCUCUGGAUCCCUCGUCACUCAGCAGGGCAUCUCUGAGAGAAAUGCC [U23C U109C], the self-cleavage is 1.84.
On to UACGUAGGUGGUUUUCCCCUGACAGUGCUAAGGGGGCCUGGAAGUUUGGACUGGGCAGAGCUCAACACAGCGUGGCAAAGUGGCUGUGGCUAGACUGCCUCUCUGGAUACCUCGUCACUCAGCAGGGCAUCUCUGAGAGAAAUGCC [U23C U109A], for which the self-cleavage is 1.49.
The same measure for UACGUAGGUGGUUUUCCCCUGACAGUGCUAAGGGGGCCUGGAAGUUUGGACUGGGCAGAGCUCAACACAGCGUGGCAAAGCGGCUGUGGCUAGACUGCCUCUCUGGAUUCCUCGUCACUCAGCAGGGCAUCUCUGAGAGAAAUGCC [U23C U81C]: 1.41.
Consider UACGUAGGUGGUUUUCCCCUGACAGUGCUAAGGGGGCCUGGAAGUUUGGACUGGGCAGAGCUCAACACAGCGUGGCAAAGAGGCUGUGGCUAGACUGCCUCUCUGGAUUCCUCGUCACUCAGCAGGGCAUCUCUGAGAGAAAUGCC [U23C U81A], for which the self-cleavage was determined as 1.85.
Turning to UACGUAGGUGGUUUUCCCCUGAGAGUGCUAAGGGGGCCUGGAAGUUUGGACUGGGCAGAGCUCAACACAGCGUGGCAAAGUGGCUGUGGCUAGACUGCCUCUCUGGAUUCCUCGUCACUCAGCAGGGCAUCUCUGAGAGAAAUGCC [U23G], the self-cleavage worked out at 1.18.
In the case of UACGUAGGUGGUUUUCCCCUGACAGUGCCAAGGGGGCCUGGAAGUUUGGACUGGGCAGAGCUCAACACAGCGUGGCAAAGUGGCUGUGGCUAGACUGCCUCUCUGGAUUCCUCGUCACUCAGCAGGGCAUCUCUGAGAGAAAUGCC [U23C U29C], the self-cleavage was 1.06.
UACGUAGGUGGUUUUCCCCUGACAGUGCUAAGGGGGCCUGGAAGUUUGGACUGGGCAGAGCUCAACACAGCGUGGCAAAGUGGCUGUGGCAAGACUGCCUCUCUGGAUUCCUCGUCACUCAGCAGGGCAUCUCUGAGAGAAAUGCC [U23C U91A]: the self-cleavage was determined as 0.8.
Consider UACGUAGGUGGUUUUCCCCUGACAGUGCUAAGGGGGCCCGGAAGUUUGGACUGGGCAGAGCUCAACACAGCGUGGCAAAGUGGCUGUGGCUAGACUGCCUCUCUGGAUUCCUCGUCACUCAGCAGGGCAUCUCUGAGAGAAAUGCC [U23C U39C], for which the self-cleavage was determined as 0.87.
For UACGUAGGUGGUUUUCCCCUGACAGUGCUAAGGGGGCCAGGAAGUUUGGACUGGGCAGAGCUCAACACAGCGUGGCAAAGUGGCUGUGGCUAGACUGCCUCUCUGGAUUCCUCGUCACUCAGCAGGGCAUCUCUGAGAGAAAUGCC [U23C U39A], the self-cleavage was determined as 1.2.
On to UACGUAGGUGGUUUUCCCCUGACAGUGCUAAGGGGGCCUGGAAGUUAGGACUGGGCAGAGCUCAACACAGCGUGGCAAAGUGGCUGUGGCUAGACUGCCUCUCUGGAUUCCUCGUCACUCAGCAGGGCAUCUCUGAGAGAAAUGCC [U23C U47A], for which the self-cleavage was 1.9.
UACGUAGGUGGUUUUCCCCUGACAGUGCUAAGGGGGCCUGGAAGUUUGGACUGGGCAGAGCUCAACACAGCGUGGCAAAGUGGCUGUGGCUAGACCGCCUCUCUGGAUUCCUCGUCACUCAGCAGGGCAUCUCUGAGAGAAAUGCC [U23C U96C]: the self-cleavage was 0.21.
Turning to UACGUAGGUGGUUUUCCCCUGACAGUGCUAAGGGGGCCUGGAAGUUUGGACUGGGCAGAGCUCAACACAGCGUGGCAAAGUGGCUGUGGCUAGACAGCCUCUCUGGAUUCCUCGUCACUCAGCAGGGCAUCUCUGAGAGAAAUGCC [U23C U96A], the self-cleavage was determined as 0.12.
On to UACGUAGGUGGUUUUCCCCUGAGAGUGCUAAGGGGGCCUGGAAGUUUGGACUGGGCAGAGCUCAACACAGCGUGGCAAAGUGGCUGAGGCUAGACUGCCUCUCUGGAUUCCUCGUCACUCAGCAGGGCAUCUCUGAGAGAAAUGCC [U23G U87A], for which the self-cleavage worked out at 0.11.
For UACGUAGGUGGUUUUCCCCUGAGAGUGCUAAGGGGGCCUGGAAGUUUGGACUGGGCAGAGCUCAACACAGCGUGGCAAAGUGGCUGUGGCUAGACUGCCUCUCUGGAUUCCUCGCCACUCAGCAGGGCAUCUCUGAGAGAAAUGCC [U23G U115C], the self-cleavage was determined as 1.29.
On to UACGUAGGUGGUUUUCCCCUGACAGUGCUAAGGGGGCCUGGAAGUUUGGACUGGGCAGAGCUCAACACAGCGUGGCAAAGUGGCUGUGGCUAGACUGCCUCUCUGGAUUCCUCGCCACUCAGCAGGGCAUCUCUGAGAGAAAUGCC [U23C U115C], for which the self-cleavage came to 1.16.
UACGUAGGUGGUUUUCCCCUGACAGUGCUAAGGGGGCCUGGAAGUUUGGACUGGGCAGAGCUCAACACAGCGUGGCAAAGUGGCUGUGGCUAGACUGCCUCUCUGGAUUCCUCGACACUCAGCAGGGCAUCUCUGAGAGAAAUGCC [U23C U115A]: the self-cleavage was found to be 1.23.
As for UACGUAGGUGGUUUUCCCCUGACAGUGCUAAGGGGGCCUGGAAGUUUGGACUGGGCAGAGCACAACACAGCGUGGCAAAGUGGCUGUGGCUAGACUGCCUCUCUGGAUUCCUCGUCACUCAGCAGGGCAUCUCUGAGAGAAAUGCC [U23C U62A], the self-cleavage stood at 0.06.
As to UACGUAGGUGGUUUUCCCCUGACAGUGCUAAGGGGGCCUGGAAGUUUGGACUGGGCAGAGCUCAACACAGCGUGGCAAAGUGGCUGUGGCUAGACUGCCUCUCUGGAUUCCCCGUCACUCAGCAGGGCAUCUCUGAGAGAAAUGCC [U23C U112C], the self-cleavage turned out to be 1.57.
For UACGUAGGUGGUUUUCCCCUGACAGUGCUAAGGGGGCCUGGAAGUUUGGACUGGGCAGAGCUCAACACAGCGUGGCAAAGUGGCUGUGGCUAGACUGCCUCACUGGAUUCCUCGUCACUCAGCAGGGCAUCUCUGAGAGAAAUGCC [U23C U102A], the self-cleavage came out at 1.28.
UACGUAGGUGGUUUUCCCCUGACAGUGCUAAGGGGGCCUGGAAGUUUGGACUGGGCAGAGCUCAACACAGCGUGGCAAAGUGGCUGUGGCUAGACUGCCUCCCUGGAUUCCUCGUCACUCAGCAGGGCAUCUCUGAGAGAAAUGCC [U23C U102C]: the self-cleavage was found to be 1.33.
In the case of UACGUAGGUGGUUUUCCCCUGACAGGGCUAAGGGGGCCUGGAAGUUUGGACUGGGCAGAGCUCAACACAGCGUGGCAAAGUGGCUGUGGCUAGACUGCCUCUCUGGAUUCCUCGUCACUCAGCAGGGCAUCUCUGAGAGAAAUGCC [U23C U26G], the self-cleavage worked out at 1.45.
